Test results from a protein production outcome set (Wang et al. 2014).
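Further: failed if final PepcDB status was selected cloned or expressed and not failed if soluble or beyond.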

Assay: label from the status in PepcDB records
In the case of “MAFPQRKRTPSFSSSVLDSVYRSIDESDGLQSDLKGSINENVSSSSSSPSPNKKDDKLTTLRRAIMDEEHWLYARSSTTTTNSSDSSSFSSSEAESYRTKRRLRKLAEQGKRSGDERQRTKRTVMDNDSRLFSKSDDDKKPKAVKIIEELKRSKQPVSPGARLTSFLNSIFQSNAKKVKLCSVGKTTDVKSSSSKSCFSRTRNKTDNNNNNCKKLERSIRFYPVRVTIDGDCRDYAQKHITRVRKPIPEFTAKKSVKEEIKTNDHHTEFTCITRNIGLKDFVRSNKYEGKEEEEDAWSHSSSDLFELDSYRIGMGRYLKELPVYETTDFKTNQAIARSLLL”, the protein production is reported as “failed”.
For “MAFRITSQLRPVGNQFGGSRRFATTVADGAKQTYNKFSIMGEFAPVAIIGGFVGLAVLMAGHSLKQQLMHAPAISTRKNRRAAVAEVDDPENCVSSADKFINKSWLRKVGQIQDKSKAILSDPTRPNPFTTPRNAETLNSVGVAPKGI”, the protein production was “failed”.
With “MAFRMSEQPRTIKIYNLLAGTNEFIGEGDAYIPPHTGLPANSTDIAPPDIPAGFVAVFNSDESSWHLVEDHRGKTVYDVASGDALFISELGPLPENVTWLSPEGEFQKWNGTAWVKDTEAEKLFRIREAEETKNNLMQVASEHIAPLQDAADLEIATEEEISLLEAWKKYRVLLNRVDTSTAQDIEWPALP” the protein production was “not failed”.
In the case of “MAFSAPEPELSVVVPTLNEAETVATLLAALAAQRDVALELLLCDGGSTDGTAALVRGRAGDLPFPVTVTETPPGRGRQMNAGAAAARGATFLFLHADSIIADPLALRRGLDHLAAARRSDKRAAGHFRLRFAGDSPSPLAYRFYERKARLHRPGCTHGDQGLLIPREFFDQVGPFDEGLPILEDVRLAERIAAMGTWVLLPAEIITSARRFETEGLRERQTLNAILMNFAAIGWQQGVEELVAGYRSQDRSGRLRLGPHLARIAGLTAALPRQERLRLWYLTGGYVRGNAWQIPLFLDVRNAWRRGGDDGATPLLSLHDRWFDLLTDNPAGRAAAALMTFLWFRLTLRREMKDWPGILRTPLEHHHHHH”, the protein production is reported as “failed”.
For “MAFSPLCGVNCTSRPSASTINTFLTKAQHDVTLTDTDTRIFIKNIKTGVTMEQFRNSLQEFGAMQVYFYEPGSNNDGWAWVGFENKEAALKVIEESEKMQEEMNEENLNEMQNEDNEEQGSNSFYAEDEDKKDEEEEEEEEEY”, the protein production was “failed”.
With “MAFWAGGSPSVVDYFPSEDFYRCGYCKNESGSRSNGMWAHSMTVQDYQDLIDRGWRRSGKYVYKPVMNQTCCPQYTIRCRPLQFQPSKSHKKVLKKMLKFLAKGEVPKGSCEDEPMDSTMDDAVAGDFALINKLDIQCDLKTLSDDIKESLESEGKNSKKEEPQELLQSQDFVGEKLGSGEPSHSVKVHTVPKPGKGADLSKPPCRKAKEIRKERKRLKLMQQNPAGELEGFQAQGHPPSLFPPKAKSNQPKSLEDLIFESLPENASHKLEVRLVPVSFEDPEFKSSFSQSFSLYVKYQVAIHQDPPDECGKTEFTRFLCSSPLEAETPPNGPDCGYGSFHQQYWLDGKIIAVGVIDILPNCVSSVYLYYDPDYSFLSLGVYSALREIAFTRQLHEKTSQLSYYYMGFYIHSCPKMKYKGQYRPSDLLCPETYVWVPIEQCLPSLENSKYCRFNQDPEAVDEDRSTEPDRLQVFHKRAIMPYGVYKKQQKDPSEEAAVLQYASLVGQKCSERMLLFRN” the protein production was “failed”.
In the case of “MAGAGGGNDIQWCFSQVKGAVDDDVAEADIISTVEFNHSGELLATGDKGGRVVIFQQEQENKIQSHSRGEYNVYSTFQSHEPEFDYLKSLEIEEKINKIRWLPQKNAAQFLLSTNDKTIKLWKISERDKRPEGYNLKEEDGRYRDPTTVTTLRVPVFRPMDLMVEASPRRIFANAHTYHINSISINSDYETYLSADDLRINLWHLEITDRSFNIVDIKPANMEELTEVITAAEFHPNSCNTFVYSSSKGTIRLCDMRASALCDRHSKLFEEPEDPSNRSFFSEIISSISDVKFSHSGRYMMTRDYLSVKIWDLNMENRPVETYQVHEYLRSKLCSLYENDCIFDKFECCWNGSDSVVMTGSYNNFFRMFDRNTKRDITLEASRENNKPRTVLKPRKVCASGKRKKDEISVDSLDFNKKILHTAWHPKENIIAVATTNNLYIFQDKVN”, the protein production is reported as “failed”.
With “MAGAITLACTIRFEANAEHVYLSSGTKQTVYHYPFPMSTIHITLNGERKEVPAGSTVSELLVIADADRQPVAVVVNEHIVRPDQRDSYILQERDQVEILVFAGGGLEHHHHHH” the protein production was “not failed”.
For “MAGASHDIHPPKVEYFDLRDHTNTDPKGFVRHVDHYRVEPWGLYMARTSDHPQFHYLESWLLPDLGLRASIFHYHPYHQRDQDHYVDIGTFTRGDDVWKSEDHYLDLVVRTGRDTELLDVDELMEAHTTGLLDTATAEQAILTATTAIDGIAAHGHDLGRWLASIGMPIDWR”, the protein production was “not failed”.
In the case of “MAGATDRDGWKVERGDDSWTVPGYIDLKKLGKGGAGRVMIARHAGTGRNVAIKYLNEELCSKVEFRTALRAEARLLGGLTSPHVTRLYEYVEAEQGAAIVMELVYGAALRTLLKKEGSTDIEAALVVLKGSLLGLAAAHGVGVVHRDYKPENVLVNWDGQTKLVDFGISARTGDRHNLRGTCAYMPPEQWKLEAATPAGDVYAATATLYECVTGVRPFEGPEPWDFQRQHVDEPVPMDRVPEEVRALVRHGMAKDPALRPPSALDFLRELEWAAENAYGPDWEERGQSRLAAVAAALVPLAISRLDARLVGSSAELARTVLTARRRSRLRRRGDVLTGAAAVAVVGLLSLMPSGWAAGGAEGHAGAHAQAVTRLDARKDTGSATEARGTEHGDTAESDPDSDRAGTSGAQGGGGHGDGGAGLAPADGGTRSDSGSGGGAGDSGTDSPDDGNNTVERNGGTENGGTENGGTENGGTENGGTENGGTENGGTENGGTENGGTENGGTENGGTENGGTENGGTENGGTENGGTENGGTENGGTENGGTENGGTENGGTENGGTENGGTENGGTENGGTENGGTENGGTENGGTDNGGTDNGGTDNGGTDARHGHSNAGTSDGDPASTGGTDSGNSAGGTGTGTGSGSTSAVTPRQGDPAAVEGEPG”, the protein production is reported as “failed”.
For “MAGEDSFERIALEWHARHMANKSESHATKTLERLRKDVFPWIGNRPVREITAPELLSVLRRIESRGAIELCHVTKRICGQVMRYAIATGRAERDPAADLKGALQPVKARHLEHHHHHH”, the protein production was “failed”.
For “MAGENFATPFHGHVGRGAFSDVYEPAEDTFLLLDALEAAAAELAGVEICLEVGSGSGVVSAFLASMIGPQALYMCTDINPEAAACTLETARCNKVHIQPVITDLVKGLLPRLTEKVDLLVFNPPYVVTPPQEVGSHGIEAAWAGGKNGREVMDRFFPLVPDLLSPKGLFYLVTIKENNPEEILKIMKTKGLQGTTALSRQAGQETLSVLKFTKS”, the protein production was “failed”.
For “MAGGTKRLPRAVREQQMLDAAVDVFSDRGFHETSMDAIAAKAEISKPMLYLYYGSKDELFAACIQREGLRFVEALAPAGDPGLSPREQLRRALEGFLGFVGKHRKSWMVLYRQAMGQQAFVGSVQSSRDRLIELTAHLLESSTKDPEPGQDFELIAIALVGAGEAVADRVAGGEIEVDAAADLLESLAWRGLAGKKKPE”, the protein production was “not failed”.
With “MAGGYGVRSPGPCVQCLARPMTTPFWPGRERCASLASRDAFAARLFKRQKMESFLVSTGIVALAEMGDKTQLLSLVLAARYRKPIPIILGILIATLVNHGFAGALGGWITGMVGVDLLRWILGLGFIAMAGWMLIPDKLDDAEEAKPVKGALGILGTTIIAFFFAEMGDKTQIATVALAARFHGEVIAVVAGTTFGMMLANAPAVLLGDRFANKMPIALVHKIAAAIFLVLGLLALFNVGG” the protein production was “failed”.
With “MAGLVKKTTGLVGLAVCDTPHERLTILYTKILDLLKHFPKHAAYRKYTEQITSEKLELVKLEPDVKKLENLLQGGEVEEVILQAEKELSLARKMLQWKPWEPLVEEPPANQWKWPI” the protein production was “failed”.
With “MAGRFAPRPPRAVVRDGIPRQALAPGRVRVWAPDGPLDVGLVLGPLRRGPGDPTFRTMPDGSVWRTGRTPAGPGTLRVTARGGEVRGEAWGPGAEWLLERLPLMLGAEDDPSAFVPRHRLLAVTAHRRPGLRLTRTGLVLESLIPSILEQKVTTLEAYQAWRLLVRKFGEPAPGPAPGRMCVMPAARTWALIPSWEWHLAGVDDKRASTVLRAVRVAARLEEAAGMEPAAARERLELVPGVGPWTSAETVQRSHGAPDAVTVGDLHLPGIVGFALGGDRYADDAEMLRLLEPYAGQRHRAARLVLLSGRVPERRAPRMAPRGIERL” the protein production was “failed”.
In the case of “MAGTSQMNNGRSWMQGEKMIPNKDDAEEFANKAKNAVNSGDYDGAIADIERAIKASPRSVPYHLIKADALYRKGDYEDALDVLNFAETIEKNNPELLSLKSICYGSLGKFNESKIEATKAIKADPNYPFAYYNRAKAEQYLEEYDIAKKDLQKYLEMQPNDPDAYMDLADMEYHEGDYKKALQHVNTAIKKDKESTDAHDLKLNILLAQKDIENYLKELLEAFKDTEDFKYIGTLVETLKSVGSFDTAEDILKEFIKIYKDEPFLYDALARVYYDQDRKDDAYRTYEELLKSNDDREAKIYWFDFLLDDGSYDRLIGEIEKSGLKDDEVLEIKYIAEDQKGDHKAALSTADDLLKLDRTPYNTSLYGSQLRKLGRLDESIKALSEFDDDPDVAYELFLAYMDRGDVHSASKYLKTSIENSEDDDDVISNVLEGVSKMMDHSDFQSVNDFLDGLGKENDNLYILTEAMHAINSGVFEGYEKGKEKFLGLDEHKEEVCEFANNIVELTEGKAKAFLEKFIEDNCGENEMEE”, the protein production is reported as “failed”.
With “MAGWGIRSITGTSKLRAAMLLVVVGLLSVSGWLQRLDWLVYDEIISRQSFQPDSDIVIVAIDEESLRTIGKWPWSRELHAGLIDRLSQIGSNVVALDLLLSEPDVDHPEADKRLKTAIFTHGNVVLPVAPAQNASGDRFSLIQPLASLQRRATLGHVDVELDRDGVARRTFLYAGIDIPAFPALGLALADKGSLPNRMRLLSRMPEADKTIVNTGNSWVRSREIMVPFAGPPGTYPRISYARLLNDDDLLDDLRGKIIIVGMTATGLQQGFLTPVSLTRHNYMSGVEWHASVVDMLRNGRSIYPVPEMVAIAVTVLWVLAVLLVVNIVPGRFRSLVLLVSLAAGIGLVTMLLGVFHIWLPPGVALIGTLAVYPLQSWQRINEFIQSQFITGSCLQAVFDSVQEGVITVDAKGNILYLNQESERILGARSEQLIGKPLEQLIGVCLIPDKQDRDVNGSGSADTRPDSRIQHCVLTLPSGDRRTIRVTHRALYDRWRIPAGAVVTISDISDTLEMKQQIARQANYDVLTMLPSRNFLLSRFGELAVSARQHGAALIVCLVSVDNFSKINDAFGYHSGDALLKMIADRLLKLVCSEDLIARWSGDEFMLVVDRPVREGQELQFARKVQETINRRFEINGQEVFISASIGIRISSQPDQVDEKSEIFLDEAVSAMRRVKRQGGNGFQFYASGQMNAWTREQLEFERDFRLAIENQDKALHVLFQPIVDVQQKRVVHNEVLVRWAHPTRGLLSPGDFIPLAERVGLIGQLGDLVLWISCRIAADLAKVGQAVDISVNVASRQLLHPDFLQKVAGVLERTGLPAGRLMLEITESAVISDLPRAAEALVRLKALGVAIALDDFGTGYSSLSLLRELPLDILKIDKSFIQGIEQDHPGDEKFDFAIARAIIALGDNLGLGVIAEGVETEKHMEFLRKHHCYLQQGYYFSRPLSTTQLMQFMGRPDSIRV” the protein production was “failed”.
For “MAHHHHHHMAITLPKLKYALNALSPHISEETLSFHYNKHHAGYVNKLNGLIKDTPLANKSLTDILKESTGAIFNNAAQIWNHSFYWDSMGPNCGGEPHGEIKEKIQEDFGSFNNFKDQFSNVLCGHFGSGWGWLALNKNNKLVILQTHDAGNPIKENTGIPILTCDVWEHAYYIDYRNDRLSYVKAWWNLVNWNFANENLKNALNK”, the protein production was “not failed”.
For “MAHIFVYGTLKRGQPNHKVMLDHSHGLAAFRGRGCTVESFPLVIAGEHNIPWLLYLPGKGHCVTGEIYEVDEQMLRFLDDFEDCPSMYQRTALQVQVLEWEGDGDPGDSVQCFVYTTATYAPEWLFLPYHESYDSEGPHGLRYNPRENR”, the protein production was “not failed”.
In the case of “MAIEPDLGLDSTEPKLFSARLKPHRALSHNGFLILIGLVGTASFAAGLAFWLIGAWPVFGFFGLDVLALAFAFKVSFARARASEEISMTCSELRVRRTSARGEVAEWVLNPLWVRLEKIVHHDAGIERLYLVSSGRRLAIANFLGAEEKANFAKALMAALDAARRGPLYPA”, the protein production is reported as “failed”.
